Measured values: patent publication US20030148958A1 (PROCTER AND GAMBLE, published 2003)
Ends that are not written are not given here.

T1: corticotropin releasing factor 2 receptor
T1 sequence (Q13324 whole entry, species assumed, looked up): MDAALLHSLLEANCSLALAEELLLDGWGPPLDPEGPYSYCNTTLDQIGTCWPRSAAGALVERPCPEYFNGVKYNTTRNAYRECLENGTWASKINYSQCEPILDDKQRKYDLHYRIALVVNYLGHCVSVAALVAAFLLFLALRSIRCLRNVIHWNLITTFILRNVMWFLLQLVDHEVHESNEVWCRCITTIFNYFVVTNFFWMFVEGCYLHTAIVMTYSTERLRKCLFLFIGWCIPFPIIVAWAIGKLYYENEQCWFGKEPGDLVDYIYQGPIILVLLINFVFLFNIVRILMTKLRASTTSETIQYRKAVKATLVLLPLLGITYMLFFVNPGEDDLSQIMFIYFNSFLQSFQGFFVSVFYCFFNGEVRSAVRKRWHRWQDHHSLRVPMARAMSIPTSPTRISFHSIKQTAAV


Experiments:
[1] = target: corticotropin releasing factor 1 receptor; assay: cell-based or functional assay
[2] = target: T1, corticotropin releasing factor 2 …; assay: cell-based or functional assay
Wherever CRF1R Emax is given: reference of the scale not given here.
Wherever CRF2R Emax is given: reference of the scale not given here.

Row | Binder | CRF1R EC50 [1] [µM] | CRF1R Emax [1] [%] | CRF2R EC50 [2] [µM] | CRF2R Emax [2] [%]
1 | ZGPPISIDLPTPLLRKMIEIEKQEKEKQQAANNRLLLDTI (C-terminal amide) [SEQ ID NO 52] | > 1 | 13 | > 0.1 | 10
2 | ZGPPISIDLPWYLLRKMIEIEKQEKEKQQAANNRLLLDTI (C-terminal amide) [SEQ ID NO 55] | 0.0116 | 92 | 0.00795 | 95
3 | ZGPPISIDLPSYLLRKMIEIEKQEKEKQQAANNRLLLDTI (C-terminal amide) [SEQ ID NO 56] | > 0.1 | 14 | 0.0504 | 87
4 | ZGPPISIDLPPYLLRKMIEIEKQEKEKQQAANNRLLLDTI (C-terminal amide) [SEQ ID NO 57] | > 0.1 | 12 | > 0.1 | 46
5 | ZGPPISIDLPTRLLRKMIEIEKQEKEKQQAANNRLLLDTI (C-terminal amide) [SEQ ID NO 60] | > 0.1 | 8 | > 0.1 | 44
6 | ZGPPISIDLPTALLRKMIEIEKQEKEKQQAANNRLLLDTI (C-terminal amide) [SEQ ID NO 61] | > 0.1 | 12 | > 0.1 | 89
7 | ZGPPISIDLPFELLRKMIEIEKQEKEKQQAANNRLLLDTI (C-terminal amide) [SEQ ID NO 67] | 0.0442 | 96 | 0.01 | 50
8 | ZGPPISIDLPFHLLRKMIEIEKQEKEKQQAANNRLLLDTI (C-terminal amide) [SEQ ID NO 69] | 0.0345 | 88 | 0.00585 | 81
9 | ZGPPISIDLPTELLRKMIEIEKQEKEKQQAANNRLLLDTI (C-terminal amide) [SEQ ID NO 71] | > 0.1 | 6 | 0.0948 | 56
10 | ZGPPISIDLPTGLLRKMIEIEKQEKEKQQAANNRLLLDTI (C-terminal amide) [SEQ ID NO 73] | > 0.1 | 11 | > 0.1 | 11
11 | ZGPPISIDLPIGLLRKMIEIEKQEKEKQQAANNRLLLDTI (C-terminal amide) [SEQ ID NO 75] | > 0.1 | 5 | > 0.1 | 52
12 | ZGPPISIDLPIHLLRKMIEIEKQEKEKQQAANNRLLLDTI (C-terminal amide) [SEQ ID NO 77] | > 0.1 | 5 | 0.0433 | 100
13 | ZGPPISIDLPIYLLRKMIEIEKQEKEKQQAANNRLLLDTI (C-terminal amide) [SEQ ID NO 79] | > 0.1 | 8 | 0.0223 | 100
14 | ZGPPISIDLPLHLLRKMIEIEKQEKEKQQAANNRLLLDTI (C-terminal amide) [SEQ ID NO 83] | 0.0522 | 96 | 0.00191 | 81
15 | IVLSLDVPGPLLQILLEQTKQEAAREQATTNARILARV-NH2 [SEQ ID NO 5] | 0.1 | 9 | 0.1 | 12
16 | SQEPPISLDLTIHLLREVLEMTKADQLAQQAHSNRKLLDIA-NH2 [SEQ ID NO 87] | 0.1 | 5.3 | 0.1 | 14.7

Continued, values first:

Row | CRF1R EC50 [1] [µM] | CRF1R Emax [1] [%] | CRF2R EC50 [2] [µM] | CRF2R Emax [2] [%] | Binder
17 | > 1 | 42 | 0.019 | 94 | ZGPPISIDLPTILLRKMIEIEKQEKEKQQAANNRLLLDTI (C-terminal amide) [SEQ ID NO 50]
18 | > 1 | 48 | 0.0206 | 100 | ZGPPISIDLPTLLLRKMIEIEKQEKEKQQAANNRLLLDTI (C-terminal amide) [SEQ ID NO 51]
19 | 1 | 10 | 0.1 | 11 | ZGPPISIDLPDYLLRKMIEIEKQEKEKQQAANNRLLLDTI (C-terminal amide) [SEQ ID NO 54]
20 | > 0.1 | 16 | 0.0716 | 100 | ZGPPISIDLPKYLLRKMIEIEKQEKEKQQAANNRLLLDTI (C-terminal amide) [SEQ ID NO 58]
21 | > 0.1 | 10 | > 0.1 | 27 | ZGPPISIDLPTNLLRKMIEIEKQEKEKQQAANNRLLLDTI (C-terminal amide) [SEQ ID NO 59]
22 | 0.0732 | 34 | 0.0673 | 100 | ZGPPISIDLPGYLLRKMIEIEKQEKEKQQAANNRLLLDTI (C-terminal amide) [SEQ ID NO 63]
23 | 0.0689 | 57 | 0.0633 | 94 | ZGPPISIDLPNYLLRKMIEIEKQEKEKQQAANNRLLLDTI (C-terminal amide) [SEQ ID NO 64]
24 | > 0.1 | 16 | 0.0679 | 64 | ZGPPISIDLPRYLLRKMIEIEKQEKEKQQAANNRLLLDTI (C-terminal amide) [SEQ ID NO 65]
25 | 0.783 | 64 | 0.0315 | 100 | IVLSLDVPIGLLQELLEMARAEQLAQQAHSNRKLMEII-NH2 [SEQ ID NO 1]
26 | > 0.1 | 33 | 0.0386 | 74 | ZGPPISIDLPFGLLRKMIEIEKQEKEKQQAANNRLLLDTI (C-terminal amide) [SEQ ID NO 68]
27 | > 0.1 | 8 | 0.0182 | 82 | ZGPPISIDLPTYLLRKMIEIEKQEKEKQQAANNRLLLDTI (C-terminal amide) [SEQ ID NO 70]
28 | > 0.1 | 4 | > 0.1 | 55 | ZGPPISIDLPTQLLRKMIEIEKQEKEKQQAANNRLLLDTI (C-terminal amide) [SEQ ID NO 72]
29 | > 0.1 | 7 | 0.055 | 100 | ZGPPISIDLPTHLLRKMIEIEKQEKEKQQAANNRLLLDTI (C-terminal amide) [SEQ ID NO 74]
30 | > 0.1 | 7 | 0.0915 | 76 | ZGPPISIDLPIELLRKMIEIEKQEKEKQQAANNRLLLDTI (C-terminal amide) [SEQ ID NO 76]
31 | > 0.1 | 6 | 0.0246 | 78 | ZGPPISIDLPIQLLRKMIEIEKQEKEKQQAANNRLLLDTI (C-terminal amide) [SEQ ID NO 78]
32 | > 0.1 | 55 | 0.00653 | 88 | ZGPPISIDLPLQLLRKMIEIEKQEKEKQQAANNRLLLDTI (C-terminal amide) [SEQ ID NO 80]
33 | 0.0609 | 81 | 0.0043 | 73 | ZGPPISIDLPLYLLRKMIEIEKQEKEKQQAANNRLLLDT (C-terminal amide) [SEQ ID NO 81]
34 | 0.0962 | 85 | 0.0109 | 90 | ZGPPISIDLPLELLRKMIEIEKQEKEKQQAANNRLLLDTI (C-terminal amide) [SEQ ID NO 82]
35 | 0.0822 | 99 | 0.00177 | 100 | ZGPPISIDLPFQLLRKMIEIEKQEKEKQQAANNRLLLDTI (C-terminal amide) [SEQ ID NO 84]
36 | 0.011 | 84 | 0.00234 | 100 | ZGPPISIDLPFYLLRKMIEIEKQEKEKQQAANNRLLLDTI (C-terminal amide) [SEQ ID NO 85]
37 | 0.1 | 4.6 | 0.1 | 8.1 | SQEPPISLDLTIGLLREVLEMTKADQLAQQAHSNRKLLDIA-NH2 [SEQ ID NO 86]
